Test results: article doi:10.1101/2024.03.08.584019

Molecular target: GNNV-P R276A (Dragon grouper (Epinephelus lanceolatus) nervous necrosis virus)
Assay: AUC

## GNNV-P R276A (domain or fragment)
  stoichiometry N: 3
